Source: PMC5242468

Experiments:
[1] = biological target: β-Glucuronidase (GusA) (E. coli MG1655), P05804; assay: SEC; after 65°C and pH 5 for 20 min (high temperature and acidic pH); data not shown; conditions: remark: other sources report otherwise
[2] = biological target: β-Glucuronidase (GusA) (E. coli MG1655), P05804; assay: SEC; gel filtration of the freshly purified enzymes against reference proteins (thyroglobulin, aldolase, albumin, ovalbumin, chymotrypsinogen A); results name a Superose 12 10/300 column, methods name a ZORBAX GF-250 HPLC column, 130 mM NaCl/20 mM Na2HPO4 pH 7.0, 23°C; conditions: remark: other sources report otherwise

B1: β-Glucuronidase (GusA), P05804 1-603 (enzyme)
chain: MLRPVETPTREIKKLDGLWAFSLDRENCGIDQRWWESALQESRAIAVPGSFNDQFADADIRNYAGNVWYQREVFIPKGWAGQRIVLRFDAVTHYGKVWVNNQEVMEHQGGYTPFEADVTPYVIAGKSVRITVCVNNELNWQTIPPGMVITDENGKKKQSYFHDFFNYAGIHRSVMLYTTPNTWVDDITVVTHVAQDCNHASVDWQVVANGDVSVELRDADQQVVATGQGTSGTLQVVNPHLWQPGEGYLYELCVTAKSQTECDIYPLRVGIRSVAVKGEQFLINHKPFYFTGFGRHEDADLRGKGFDNVLMVHDHALMDWIGANSYRTSHYPYAEEMLDWADEHGIVVIDETAAVGFNLSLGIGFEAGNKPKELYSEEAVNGETQQAHLQAIKELIARDKNHPSVVMWSIANEPDTRPQGAREYFAPLAEATRKLDPTRPITCVNVMFCDAHTDTISDLFDVLCLNRYYGWYVQSGDLETAEKVLEKELLAWQEKLHQPIIITEYGVDTLAGLHSMYTDMWSEEYQCAWLDMYHRVFDRVSAVVGEQVWNFADFATSQGILRVGGNKKGIFTRDRKPKSAAFLLQKRWTGMNFGEKPQQGGKQ
stoichiometry N [1]: 4 | stoichiometry N [2]: 4
